Measured values reported in article PMC6588359.

Columns and labels:
[1] = test system: amyloid-β40 (Aβ40); assay: native MS; native nano-ESI-IMS-MS, positive ionization; Aβ40 alone or 1:1 mol/mol with Aβ_(16–22); samples incubated 5 min at 37°C without agitation, analysed immediately following mixing
[2] = biological target: amyloid-β40 (Aβ40)

For Aβ_(16–22), the “percent heterodimers by total ion count” value [1] was 1.0 ± 0.5%.
Aβ_(16–22) (peptide) gave a ThT fluorescence: average t1/2 of Aβ40 aggregation with sonicated Aβ (16–22) fibrils [2] of 6.2 h and a ThT fluorescence: average t1/2 of Aβ40 aggregation with unfragmented (unsonicated) Aβ (16–22) fibrils [2] of 7.2 h.
amyloid-β40 (Aβ40) (peptide) showed a stoichiometry N [1] of 1.
